Measured values taken from paper PMC3362863 (Traffic (Copenhagen, Denmark), 2011).

B1: CHC-TFE3 fusion protein, Flag- or Myc-tagged (other, human, UniProt Q00610 1-932, looked up)
chain: MAQILPIRFQEHLQLQNLGINPANIGFSTLTMESDKFICIREKVGEQAQVVIIDMNDPSNPIRRPISADSAIMNPASKVIALKAGKTLQIFNIEMKSKMKAHTMTDDVTFWKWISLNTVALVTDNAVYHWSMEGESQPVKMFDRHSSLAGCQIINYRTDAKQKWLLLTGISAQQNRVVGAMQLYSVDRKVSQPIEGHAASFAQFKMEGNAEESTLFCFAVRGQAGGKLHIIEVGTPPTGNQPFPKKAVDVFFPPEAQNDFPVAMQISEKHDVVFLITKYGYIHLYDLETGTCIYMNRISGETIFVTAPHEATAGIIGVNRKGQVLSVCVEEENIIPYITNVLQNPDLALRMAVRNNLAGAEELFARKFNALFAQGNYSEAAKVAANAPKGILRTPDTIRRFQSVPAQPGQTSPLLQYFGILLDQGQLNKYESLELCRPVLQQGRKQLLEKWLKEDKLECSEELGDLVKSVDPTLALSVYLRANVPNKVIQCFAETGQVQKIVLYAKKVGYTPDWIFLLRNVMRISPDQGQQFAQMLVQDEEPLADITQIVDVFMEYNLIQQCTAFLLDALKNNRPSEGPLQTRLLEMNLMHAPQVADAILGNQMFTHYDRAHIAQLCEKAGLLQRALEHFTDLYDIKRAVVHTHLLNPEWLVNYFGSLSVEDSLECLRAMLSANIRQNLQICVQVASKYHEQLSTQSLIELFESFKSFEGLFYFLGSIVNFSQDPDVHFKYIQAACKTGQIKEVERICRESNCYDPERVKNFLKEAKLTDQLPLIIVCDRFDFVHDLVLYLYRNNLQKYIEIYVQKVNPSRLPVVIGGLLDVDCSEDVIKNLILVVRGQFSTDELVAEVEKRNRLKLLLPWLEARIHEGCEEPATHNALAKIYIDSNNNPERFLRENPYYDSRVVGKYCEKRDPHLACVAYERGQCDLELINLPVSGNLLDVYSSQGVATPAITVSNSCPAELPNIKREISETEAKALLKERQKKDNHNLIERRRRFNINDRIKELGTLIPKSSDPEMRWNKGTILKASVDYIRKLQKEQQRSKDLESRQRSLEQANRSLQLRIQELELQAQIHGLPVPPTPGLLSLATTSASDSLKPEQLDIEEEGRPGAATFHVGGGPAQNAPHQQPPAPPSDALLDLHFPSDHLGDLGDPFHLGLEDILMEEEEGVVGGLSGGALSPLRAASDPLLSSVSPAVSKASSRRSSFSMEEES
B2: P2X4-GFP (receptor, UniProt P51577 1-388, looked up)
chain: MAGCCSVLGSFLFEYDTPRIVLIRSRKVGLMNRAVQLLILAYVIGWVFVWEKGYQETDSVVSSVTTKAKGVAVTNTSQLGFRIWDVADYVIPAQEENSLFIMTNMIVTVNQTQSTCPEIPDKTSICNSDADCTPGSVDTHSSGVATGRCVPFNESVKTCEVAAWCPVENDVGVPTPAFLKAAENFTLLVKNNIWYPKFNFSKRNILPNITTSYLKSCIYNAQTDPFCPIFRLGTIVEDAGHSFQEMAVEGGIMGIQIKWDCNLDRAASLCLPRYSFRRLDTRDLEHNVSPGYNFRFAKYYRDLAGKEQRTLTKAYGIRFDIIVFGKAGKFDIIPTMINVGSGLALLGVATVLCDVIVLYCMKKKYYYRDKKYKYVEDYEQGLSGEMNQ

Target: the molecule itself
Experiment: cross-linking

Protein | stoichiometry N
B1 | 2
B2 | 3
